# Assay results: the domain aggregation screens of Martell et al. (2025)
# Assay: soluble fraction after stress (log2 fold change); higher = more stays soluble; pooled small domains, quantitative proteomics
# Details: stress: pH 4
# In short: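 High-throughput quantitative proteomics was run on pooled custom libraries of small protein domains following pH 4 stress. Fold changes are on a log2 scale; higher values mean more of a domain remained soluble. The fold change in soluble amount is taken as a measure of aggregation propensity.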
row,Sequence,soluble fraction (log2)
1,HMSDGHLIKVLEVLDGGEAFLGRTANGGTARFSLGQLADIRRGSVVFVSEDRWEVVPDSAWPEI,-1.29
2,HMSIGKEATPDDIVPNIRVYHATFGYGNVIKTDGVSHDKKAVVNFDSVGEKTLLLKFAKLILPY,-0.754
3,HMGILPDDVKLNIKEAKKIGFPIMLKAIHGGGGRGMMIVQSEDEFADAMKITKTEAKNSFGNGDLYFEKFF,0.0153
4,HMTPYEVLVYESLKQKILSGGYAAGEKIPEQSVSEELGVSRSPLRSAIRRLASEGLIEYYPYRGAFVKA,-0.751
5,HMAPLEPLTDRETEMLVRLANGASNKVMARESFVSENTIKFHLKNIYAKLGVTSRLQAIAAARNQGLI,-0.0342
6,HMNVAETITLGKRLFNHALTILGKKQRNISRKQLKNFLNDLGLKDSKDLYESIGTGDKNPILMAQLLLG,-0.0687
7,HMHMKTIEWDSLVLIMYKDMKYLKRINEGQSFHGKGGMLNYADLIGKTYGIRFGQYEIFEPSLEDIVMYG,-0.569
8,HMGMGIGQIIKEKRTALKMTQNELAERLGVSQQSVTGWENNAAVPRESAVRGMMDIFGLSRNELFGEP,0.0969
9,HMPLITLSAEIQSEQIGQRLDQTLAELFPEYSRSRLKTWIEADLVKLNNQIVNIPREKVLGGEHVEITVDI,-0.792
10,HMGRLNMRRIRDVLRLKFGQGLSERQVAASLGLSKTSVGTYLHRARQAGLTWPLPQGLDDDGLELLLFP,0.0376
11,HMADRDKYIIMGQQLLRAAFEHFGKKATDKALENAANKLRISDVPELYARLGSAELQPRDVINVIFPD,-0.0521
12,HMKDVVAPMSGRVVRLMVAAGDEVVKRQALVVVEAMKMENVLTAPKEGRIKKVPVREGMTVEVGQTLVSFE,-0.274
13,HMRPQELSSLNTNQMRLYNSLPEAFITAEAKDIADKLRYSERSLFRFLNESNLFTKTEHGSYAKKA,-0.585
14,HMDTPMYMAIIEEVRFQIANEILKEGEQLPSIRNLAKTLKVSVITVKRAYKELEEAGYITTIPAKGSKVS,-0.167
15,HMGMMTLGQRIAQYRKAMGISQEELGGRLGVSRQAVSKWETDAAAPDMENLLALAREFGVSVAELTETP,-0.11
16,HMESDAIAAAIAALPARYREVLLLRYDNGFSYSEISKALDMTEAAVRKTVQRAKEALQRTLQIQEEDT,-0.219
17,HMNTVAKELATQATQAKKRAFLDAYAETGIIKRAAEIAGIERKSHYLWLEKDPEYVEAFKSAGEQ,-0.0116
18,HMHVSLADQAYKTIRTNILNLTYPPGTQLTEAKLASDLNMSRSPVRTAIKMLQADGLLVSDYYKSMTVK,≥ 0.43
19,HMTRKQTIYEFLRRMKSQHGLDAVYSTEEIANAVGVSRANVSSDLNRLFEEQLVEKLPGWPVKYRA,0.128
20,HMDEEDVLNELIRRLALTADDRLLLSLSYEDGLSSRKIATLLETSAATVQRRLAGLHHQLEQALRVMGLA,-0.828
21,HMTARPTLEKLKYMIHEAGITENSLKVIVATKGHYGLDADISTYSDDFITRWIIPNWTKIVQTISNNK,0.0354
22,HMSSSKVAISQFEELVDQGQVREVVIEGSTATGTTAAGRRFAAEIPPGGMELFLSKLDDAGTTYEYSPP,0.127
23,HMRTIPDALIGRPYESVETAIVLEGLQAKRTEVFHPTIRPGTVIRLEPTSGSELLRDGVVEIFVSQGPETT,-1.47
24,HMLTALTDREEEILVLLAHNLSNKEIAKRLNLSVNTVRNHTSHIYEKLNVTSRRKAITLAQSLHLLPP,-0.067
25,HMVLTYYSVLGVKTDATTEEIKSTYKQLAIRNHPDRGGSEEVMKMINLAAEILSDPKSRKEYDLSLDA,-1.48
26,HMVTQVDYGTFLTRIDEGKVKSVEIQDNQIAFTAIDEAGKENIYVTGKVNDPELVDRLLAADIEDFSQVIP,-1.29
27,HMLSTNDYNENKNKLIKDFEIKFIIKHLKLNKGNVAATARSINFHPVSLRQKIAKLGIDVDEVMAG,-0.341
28,HMIFEETVFKDIAFGPKNMGLSEAEIKRRVYETAENIGLSQELMERSPFELSGGQKRRVAIAGVMAMEP,-0.878

row,Sequence,soluble fraction (log2)
1,HMSDDIPVHYRLDVNDAARALKLLTDNGFSAETAESGLNVYMTRLQSAEAARLLVENNIAVYGLTAV,-0.196
2,HMPDPLYLINGKIVNKSDFNNIDPRSIQSIEVLKANKALEAFGNDGKNGVIKITLKSSNDQM,0.22
3,HMSYTPGQWVEASMPNATFFRIVPSGNATADKMLAVATPMKVISTSGTYVKVELDSGDVGFVPEIMV,0.102
4,HMSELPLTQKVAIVMVALGEEASGEVMKHLSDYEIEEITQAIAGLKNISVELMDQILEEYEQHLIAG,-0.536
5,HMRSGEDESFSAGLLEYPHYTRPAEFEGHRIPDILTSGDHAKVDAWRQEMSEHITRERRPDLWEMYKKK,0.0228
6,HMENDPYEILGIARSASDDEIKAKYRALTRENHPDILMAKGVPQEFIDLANEKMAVINAAYDKIEKER,0.12
7,HMENPVPVIITDQNFQPLLWKNVGVPTDTIFHELSPENQKKLENLMKTMVQMPLTDDGRISGYAYYSK,0.149
8,HMEITTLTGVLGAGRLDSALAAALPQYSRARIQALISDAALRINGQVVADAGSKKMSGQTFELNIPAPVP,0.0449
9,HMDIGKNIQTIRYANKLTQDQVIAKLNLMGISMSKSTYAKLETNRMNIKVSELVALAKIFHTDINAF,-0.274
10,HMDIRMLLSDREEEIMILLSKGLSISEAANRMQIGQASAATYLNRARRKLKAETVRQAVAIWTGD,-0.422
11,HMINLRTALNNAGVMQKELSDILYMTPQDVNRRFSGVTKWKPLEKRAIMQFLEDRGFEYTEEQLF,-0.883
12,HMKGMIKVASMSLGADLGLYSRHLKYLGIVHRVVEESGGQSVYIQKLNDLHTAKESLELYLKNELKI,-0.476
13,HMQISDVSLIAKVIDDVIDNNVKSVSDYLEGNLNVLRFLVGQVMKETKGKANPQKATELLQEKLESLNN,-0.386
14,HMEASSTAIQAMIRRLIDDENPRKPLSDAKLADLLKSSGIPVARRTVAKYREAMNISASHERVRI,0.17
15,HMGESVVVPDLRGKTLEEARAILKKVDLDYEINDSTYSKTAVPGTIRDIVPAPGSHVKAGRILFVSING,0.0395
16,HMERMTSTEILTRDFLTTNSKIVKKSTIEELSEIIHVSPATIIRTVKKMGYSGFSEYKNELINQ,0.0482
17,HMFVTGTTIKKLREEKRMTQGELAQMIGVSDKAVSKWETGRGLPDISLLEPLSRALGISVAELFAGQH,-0.0399
18,HMGSLGSLLKSVRNQRGLSRQQMAQSLNIGVRAIEQIEEGERKPDLELLNRYARGLMDPSVT,-0.138
19,HMKKDDLKQINGIGTTIEKKLNEIDIYNFYQISNLSKEDIETISEKIKTFPGKIERDNWVGQAQELL,-0.844
20,HMHPNPLTEQEIAVLKGIAQGLSNQEIADQLYLSNGTVRNYVTNILSKLDAGNRTEAANIAKESGW,-0.279
21,HMYEVVPNMKGLSYEQAATALRTAGLEPELSDSIYDDKTRPGTVLEQSPRANTKVKPGRTVYLTVNAF,0.105
22,HMEHLTATERHLVAYLEAHLGQVPSLSITKLSQEANVSTASIVRTMKKLGYDGFTAFKHAIKQQLR,0.156
23,HMGASYSQFLDQVDSGNVQKVAFGGDMRGGTSQLTYTTRGGQSSTITAPFDRDLINVLRTKNVEIVQEEP,0.0587
24,HMTVGEKIQKYRKDLDLSQEELGQKLLVSRQTISLWEKDQTVPTIDNLIRLREIFGVSVDEILGF,-1.69
25,HMQTFNADDIEPIIKEILQENPKAISDFLTGNENVVKFLLGQVMKNTKGKANPKVIEELLINQLRELNN,-0.663
26,HMEYKTGIINTNKVRVRNAADADATVIFAINKDIKVKILAEENGFYKIGVSVKNRGNGEDLIGFVKKELIT,0.3
27,HMSLETRRYQLPRTDAQTASGLLRSLSGLPGVREVNLSGEGVAYLKVDSKGFDEQNVIKLLAGE,-0.0727
